In this test the target is human CRM1 (HsCRM1), wild type (human, UniProt O14980 1-1071). The test is described as follows: direct titration, PKI WT set.
Chain of human CRM1 (HsCRM1), wild type (O14980 whole entry): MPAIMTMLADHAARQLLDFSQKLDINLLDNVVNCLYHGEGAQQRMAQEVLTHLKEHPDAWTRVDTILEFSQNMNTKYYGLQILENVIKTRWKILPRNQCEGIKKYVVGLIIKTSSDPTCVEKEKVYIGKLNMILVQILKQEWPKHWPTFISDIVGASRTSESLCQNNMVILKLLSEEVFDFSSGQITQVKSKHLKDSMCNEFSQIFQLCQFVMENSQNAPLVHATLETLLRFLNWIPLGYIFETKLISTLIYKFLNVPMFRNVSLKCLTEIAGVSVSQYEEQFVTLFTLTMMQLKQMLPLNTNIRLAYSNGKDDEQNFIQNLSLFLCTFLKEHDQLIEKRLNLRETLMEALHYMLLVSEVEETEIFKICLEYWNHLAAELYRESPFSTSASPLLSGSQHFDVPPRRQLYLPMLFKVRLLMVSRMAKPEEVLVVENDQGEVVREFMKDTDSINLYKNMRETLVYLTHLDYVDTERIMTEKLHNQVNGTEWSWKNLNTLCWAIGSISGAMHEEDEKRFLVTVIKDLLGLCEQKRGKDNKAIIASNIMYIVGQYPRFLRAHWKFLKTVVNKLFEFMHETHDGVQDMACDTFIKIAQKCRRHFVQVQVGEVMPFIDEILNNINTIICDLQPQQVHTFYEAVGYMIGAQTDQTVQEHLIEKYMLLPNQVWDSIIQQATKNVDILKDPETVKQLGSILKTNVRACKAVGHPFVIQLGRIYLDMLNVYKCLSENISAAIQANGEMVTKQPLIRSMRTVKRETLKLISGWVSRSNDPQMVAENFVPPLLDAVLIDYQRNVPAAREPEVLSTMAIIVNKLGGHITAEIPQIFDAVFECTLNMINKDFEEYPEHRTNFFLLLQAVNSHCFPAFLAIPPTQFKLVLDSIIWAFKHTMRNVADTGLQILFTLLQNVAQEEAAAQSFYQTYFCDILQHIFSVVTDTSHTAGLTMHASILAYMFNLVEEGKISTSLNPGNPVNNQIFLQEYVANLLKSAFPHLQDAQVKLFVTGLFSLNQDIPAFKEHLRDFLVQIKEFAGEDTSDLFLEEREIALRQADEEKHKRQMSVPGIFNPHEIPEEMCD

Regarding NSNELALKLAGLDINKT (FITC label (FITC-PKI^NES)) [FITC-PKI NES (NES of Protein Kinase A Inhibitor, wild type)], the Kd stood at 29 nM.

As a reminder, the Kd is the equilibrium constant for the complex coming apart. High values mean lower affinity, low ones higher affinity.

The values are drawn from publication PMC5358978 (2017).
